Experimental findings from article PMC1887708 are described below.

This assay has as its target S107-encoded IgG (monoclonal antibody bound by the Fab-binding site of SpA). The assay can be described thus: ELISA.

“monomeric domain D′ of SpA (domain or fragment)” gave a Fab-binding (relative activity in the inhibition immunoassay) of 0.01 M.
